Assays:
SthK = molecular target: T1, SthK (Winmispira thermophila, UniProt G0GA88); assay: single-channel recording in horizontal lipid bilayer; assay type: biochemical; settings: very poor partial agonist; 7 mM cGMP; +100 mV; KCl, pH 7.0
T1 construct: gene Spith_0644; C-terminally truncated SthK 1-420; 19 extra N-terminal vector residues kept; expressed in E. coli C41(DE3); homotetramer in POPG/MSP1E3 nanodiscs or liposomes

[1] = molecular target: SthK 1-420, cyclic nucleotide-gated potassium channel from Spirochaeta thermophila (Spirochaeta thermophila); assay: negative stain electron microscopy; SthK in lipid nanodiscs (20 ug/mL), uranyl acetate stain, 2D classification
[2] = molecular target: SthK 1-420, cyclic nucleotide-gated potassium channel from Spirochaeta thermophila (Spirochaeta thermophila); assay: cryo-EM structure; SthK in POPG/MSP1E3 lipid nanodiscs; apo, with 2 mM cAMP or with 7 mM cGMP; 20 mM HEPES pH 8.0, 100 mM KCl; refined with C4 symmetry and without symmetry (C1)

T1 sequence (G0GA88 entry or part of it): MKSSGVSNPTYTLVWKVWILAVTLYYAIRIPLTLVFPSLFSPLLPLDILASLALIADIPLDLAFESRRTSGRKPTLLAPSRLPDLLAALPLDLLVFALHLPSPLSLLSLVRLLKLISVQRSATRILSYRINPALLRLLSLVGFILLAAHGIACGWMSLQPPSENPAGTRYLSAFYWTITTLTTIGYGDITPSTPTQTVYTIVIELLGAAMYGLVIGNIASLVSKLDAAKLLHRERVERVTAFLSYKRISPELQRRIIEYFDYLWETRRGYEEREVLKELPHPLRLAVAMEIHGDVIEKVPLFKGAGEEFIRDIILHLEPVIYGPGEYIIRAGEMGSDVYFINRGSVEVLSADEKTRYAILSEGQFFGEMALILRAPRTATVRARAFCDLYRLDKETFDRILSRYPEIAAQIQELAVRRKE

Compound	Po (SthK)	stoichiometry N [1]	stoichiometry N [2]
Nc1nc2c(ncn2[C@@H]2O[C@@H]3COP(=O)(O)O[C@H]3[C@H]2O)c(=O)[nH]1 [cGMP]	~ 0.003	–	–
SthK 1-420, cyclic nucleotide-gated potassium channel from Spirochaeta thermophila (natural protein)	–	4	4

Reference: paper PMC6093708, “Ligand discrimination and gating in cyclic nucleotide-gated ion channels from apo and partial agonist-bound cryo-EM structures” (eLife, 2018)
